We go through one molecule from US20240262893A1.

This assay addresses SARS-CoV-2 (Wuhan-Hu-1) wild-type (WT) spike protein carried on pseudotyped virus or on live wild-type virus (SARS-CoV-2 (Wuhan-Hu-1)), P0DTC2. Description: cell-based or functional assay.

B1: R2D9 CDR3-knob (peptide)
peptide: ITHKTCPNGYNWFDRCCSWDGTCGDGCCSNRAWPSGNGRADSSIGETYGYEF
modifications: not checked
Turning to B1, the pseudovirus neutralization, ng/mL (quantity not given) amounted to 24.2 ng/mL.
